Experimental data from the supplement of paper PMC12338614.

B1: library; numbered along this chain (parent)
chain: MEVVDPQQLGMFTEGELMSVGMDTFIHRIDSTEVIYQPRRKRAKLIGKYLMGDLLGEGSYGKVKEVLDSETLCRRAVKILKKKKLRRIPNGEANVKKEIQLLRRLRHKNVIQLVDVLYNEEKQKMYMVMEYCVCGMQEMLDSVPEKRFPVCQAHGYFCQLIDGLEYLHSQGIVHKDIKPGNLLLTTGGTLKISDLGVAEALHPFAADDTCRTSQGSPAFQPPEIANGLDTFSGFKVDIWSAGVTLYNITTGLYPFEGDNIYKLFENIGKGSYAIPGDCGPPLSDLLKGMLEYEPAKRFSIRQIRQHSWFRKKHPPAEAPVPIPPSPDTKDRWRSMTVVPYLEDLHGADEDEDLFDIEDDIIYTQDFTVPGQVPEEEASHNGQRRGLPKAVCMNGTEAAQLSTKSRAEGRAPNPARKACSASSKIRRLSACKQQ

Variants of: B1
Assay: STK11 functional score (HeLa growth suppression), rescaled enrichment; synonymous median = 1, nonsense median = 0 (normalised score)
Details: with HeLa; variant type: missense
Method in brief: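 The values are functional scores: wild-type-corrected log ratios of post- versus pre-selection abundance, rescaled to synonymous and nonsense medians, merged over codons and replicate transfections, and carrying bootstrapped error. They derive from codon-randomised (POPCode), codon-optimised STK11 libraries that Bxb1 integrated at an AAVS1 landing pad in HeLa, with three transfections for each of three regions. Sequencing of tiled gDNA amplicons ran on NextSeq, at ~2 million reads per tile.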

STK11 functional score, by site and new letter:
Q214: I 1.05 | Y 1.19 | D 1.33 | F 1.04 | L 1.05 | C 0.896 | H 1.39 | E 1.36 | W 0.779 | R 1.45 | S 0.787 | A 1.18 | T 1.64 | G 1.57 | M 1.66 | V 0.919 | N 1.27 | P 0.598
D208: Y 0.93 | A 1.19 | E 1.38 | T 1.04 | I 1.31 | Q 1.58 | S 1.26 | R 1.59 | V 1.06 | N 1.4 | C 1.26 | P 1.62 | W 0.524 | M 1.7 | L 1.36 | G 1.37
P222: S 1.15 | N 1.61 | C 0.773 | T 0.499 | I 1.13 | L 0.281 | V 0.826 | R 0.93 | Q 0.712 | A 0.83 | W 0.686 | G 0.489 | E 0.0466 | D -0.103 | F 0.44 | H 0.314 | M 0.595
F204: G 1.3 | C 0.849 | R 0.931 | A 1.03 | L 1.17 | I 1.23 | W 1.3 | V 1.24 | Y 0.593 | H 1.67 | D 1.09
S213: F 1.35 | A 1.38 | P 1.32 | H 1.68 | N 1.65 | C 0.758 | V 1.02 | T 1.05 | W 1.14 | I 0.902 | R 1.04 | Y 1.34 | L 1.17 | M 1.15 | G 1.37
L201: P 1.36 | V 0.808 | W 0.55 | T 1.2 | M 0.914 | R 0.929 | S 0.759 | N 1.19 | G 0.745 | K 1.64 | I 1.48 | H 1.16
P217: Y 1.45 | A 1.25 | C 0.451 | R 0.3 | G 1.53 | S 0.334 | F 1.45 | V 0.177 | E 0.536 | H 0.332 | W 1.66 | L 0.248
A218: W 0.671 | Y 1.34 | C 0.947 | D 0.324 | G 0.816 | S 1.09 | P 0.529 | K 1.28 | N 1.35 | E 1.23 | Q 1.25 | V 1.07 | H 0.853 | T 0.88 | R 0.926 | I 0.926 | L 0.905 | M 1.35 | F 1.26
P221: M 0.39 | C 0.759 | R 0.116 | V 1.01 | F -0.0165 | G 1.03 | L 0.159 | I 0.337 | S 1.07 | D 0.00575 | Y -0.0979
Q220: G 0.849 | R 0.808 | V 0.924 | H 0.87 | L 0.714 | K 0.583 | A 1.3 | C 1.18 | E 0.51 | P 0.0844 | W 1.46 | M 1.15 | T 1.67 | Y 1.33 | S 1.21 | D 0.747
C210: W 0.601 | V 1 | K 1.3 | I 1.12 | E 0.0554 | G 1.03 | F 1.04 | A 1.33 | L 0.435 | P 1.18 | D 1.37 | H 1.42 | T 1.35 | S 0.964 | M 0.956
S216: R -0.166 | L 0.0797 | P 0.894 | M 0.227 | I 0.119
